Laboratory results published in US20240132624A1 (Ablynx, published 2024).

Key:
cyno FcRn/b2M [1] = target: T1, cyno FcRn/b2M (cyno, UniProt Q8SPV9 24-297; Q8SPW0 21-119, biotinylated); experiment: SPR pH 7.4;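 further: surface plasmon resonance kinetics, periplasmic extracts diluted 1:10 flowed over immobilized target at 25 °C, 120 s association then 600–3600 s dissociation, buffer with 150 mM NaCl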
T1 construct: bought recombinant biotinylated protein (Immunitrack ITF05 or ACRO FCM-C82W5); also called cFcRn; cFcRn/cb2M
T1 sequence (Q8SPV9 24-297 limits assumed, chain 1 of 2): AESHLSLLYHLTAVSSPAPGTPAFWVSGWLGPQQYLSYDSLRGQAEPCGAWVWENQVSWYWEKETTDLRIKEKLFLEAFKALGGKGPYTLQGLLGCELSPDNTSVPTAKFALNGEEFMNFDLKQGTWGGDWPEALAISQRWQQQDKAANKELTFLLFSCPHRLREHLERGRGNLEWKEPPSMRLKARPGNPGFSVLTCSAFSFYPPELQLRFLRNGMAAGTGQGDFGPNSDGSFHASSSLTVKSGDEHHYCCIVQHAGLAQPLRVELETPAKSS
T1 sequence (Q8SPW0 21-119 limits assumed, chain 2 of 2): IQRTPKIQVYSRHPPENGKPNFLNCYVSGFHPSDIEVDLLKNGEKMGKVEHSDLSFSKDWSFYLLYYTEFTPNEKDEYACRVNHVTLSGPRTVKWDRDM
Method: (§1) All kinetic measurements have been performed on ProteOn XPR36 (BioRad Laboratories, Inc.), MASS-2 (Sierra sensors, Gmbh) or SPR-32 (Bruker Corporation). […] The phytip purified periplasmic extracts were diluted 1:10 in running buffer (CPA+150 mM NaCl+0.005% Tw20 at pH 5.5, pH 6.0 or pH 7.4) and injected over the ligand surfaces (association: 120 s at 45 μL/min; dissociation: 600s-3600 s at 45 μL/min). Experiments were carried out at 25° C.

human FcRn/b2M [2] = target: T2, human FcRn/b2M (human, UniProt P61769 21-119, biotinylated); experiment: SPR pH 7.4;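 further: surface plasmon resonance kinetics, periplasmic extracts diluted 1:10 flowed over immobilized target at 25 °C, 120 s association then 600–3600 s dissociation, buffer with 150 mM NaCl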
T2 construct: bought recombinant biotinylated protein (ACRO FCM-H82W4 or Immunitrack ITF01); also called hFcRn; hFcRn/hb2M
T2 sequence (chain, as listed by the source limits assumed, chain 1 of 2): as the sequence (Q8SPV9 24-297 limits assumed, chain 1 of 2) above, with D39N, Q44E, S99G, G189S, N190S, M217L, T269S counted along it
T2 sequence (P61769 21-119 limits assumed, chain 2 of 2): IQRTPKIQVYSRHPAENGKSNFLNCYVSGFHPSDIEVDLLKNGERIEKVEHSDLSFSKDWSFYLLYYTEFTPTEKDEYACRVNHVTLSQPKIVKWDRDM
Method: as §1

cyno FcRn/b2M [3] = target: T1, cyno FcRn/b2M; experiment: SPR off-rate; pH 7.4 vs pH 6.0;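 further: surface plasmon resonance with diluted periplasmic extracts flowed over ligand surfaces, 120 s association and 600–3600 s dissociation at 25 °C, running buffer containing 150 mM NaCl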
Method: as §1

human FcRn/b2M [4] = target: T2, human FcRn/b2M; experiment: SPR off-rate; pH 7.4 vs pH 6.0;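 further: surface plasmon resonance with diluted periplasmic extracts flowed over ligand surfaces, 120 s association and 600–3600 s dissociation at 25 °C, running buffer containing 150 mM NaCl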
Method: as §1

cyno FcRn/b2M [5] = target: T1, cyno FcRn/b2M; experiment: SPR pH 6.0;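 further: surface plasmon resonance kinetics at 25 °C, diluted periplasmic extracts injected over immobilized ligand surfaces, 120 s association then 600–3600 s dissociation, running buffer containing 150 mM NaCl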
Method: as §1

human FcRn/b2M [6] = target: T2, human FcRn/b2M; experiment: SPR pH 6.0
Method: as §1

human FcRn/b2M [7] = target: T2, human FcRn/b2M; experiment: SPR pH 6.0; remark: listed apart in the source

Binder	koff (cyno FcRn/b2M [1])	koff (human FcRn/b2M [2])	kd ratio pH 7.4/6.0 (cyno FcRn/b2M [3])	kd ratio pH 7.4/6.0 (human FcRn/b2M [4])	koff (cyno FcRn/b2M [5])	koff (human FcRn/b2M [6])	koff (human FcRn/b2M [7])
T0263018B11 W100cG (VHH, name in Kabat numbering, FLAG3-His6 tagged) VHH: EVQLVESGGGVVQPGGSLRLSCAASGFTFSSYAMYWVRQAPGKGLEWVSAISSGGGSTDYADSVKGRFTISRDNSKNTLYLQMNSLRPEDTALYYCAADTLYTSLTGYSYWGQGTLVTVSS	0.38 s⁻¹	0.42 s⁻¹	75	46	0.0051 s⁻¹	0.0092 s⁻¹	–
T026301051 (VHH, name in Kabat numbering, tagless) VHH: EVQLVESGGGVVQPGGSLRLSCAASGFTFSSYDMYWVRQAPGKGLEWVSAISSGGGSTDYADSVKGRFTISRDNSKNTLYLQMNSLRPEDTALYYCAADTLYTDLTWYSYWGQGTLVTVSS	–	–	–	–	–	–	0.012 s⁻¹
T0263018B11 Y32F (VHH, name in Kabat numbering, FLAG3-His6 tagged) VHH: EVQLVESGGGVVQPGGSLRLSCAASGFTFSSFAMYWVRQAPGKGLEWVSAISSGGGSTDYADSVKGRFTISRDNSKNTLYLQMNSLRPEDTALYYCAADTLYTSLTWYSYWGQGTLVTVSS	0.019 s⁻¹	0.026 s⁻¹	46	39	0.00042 s⁻¹	0.00066 s⁻¹	–
T0263018B11 Y32T (VHH, name in Kabat numbering, FLAG3-His6 tagged) VHH: EVQLVESGGGVVQPGGSLRLSCAASGFTFSSTAMYWVRQAPGKGLEWVSAISSGGGSTDYADSVKGRFTISRDNSKNTLYLQMNSLRPEDTALYYCAADTLYTSLTWYSYWGQGTLVTVSS	0.21 s⁻¹	0.19 s⁻¹	60	42	0.0035 s⁻¹	0.0045 s⁻¹	–
T0263018B11 W100cL (VHH, name in Kabat numbering, FLAG3-His6 tagged) VHH: EVQLVESGGGVVQPGGSLRLSCAASGFTFSSYAMYWVRQAPGKGLEWVSAISSGGGSTDYADSVKGRFTISRDNSKNTLYLQMNSLRPEDTALYYCAADTLYTSLTLYSYWGQGTLVTVSS	0.43 s⁻¹	0.46 s⁻¹	84	72	0.0051 s⁻¹	0.0064 s⁻¹	–
T0263018B11 Y32V (VHH, name in Kabat numbering, FLAG3-His6 tagged) VHH: EVQLVESGGGVVQPGGSLRLSCAASGFTFSSVAMYWVRQAPGKGLEWVSAISSGGGSTDYADSVKGRFTISRDNSKNTLYLQMNSLRPEDTALYYCAADTLYTSLTWYSYWGQGTLVTVSS	0.13 s⁻¹	0.048 s⁻¹	60	12	0.0022 s⁻¹	0.004 s⁻¹	–
T0263018B11 Y100dF (VHH, name in Kabat numbering, FLAG3-His6 tagged) VHH: EVQLVESGGGVVQPGGSLRLSCAASGFTFSSYAMYWVRQAPGKGLEWVSAISSGGGSTDYADSVKGRFTISRDNSKNTLYLQMNSLRPEDTALYYCAADTLYTSLTWFSYWGQGTLVTVSS	0.057 s⁻¹	0.06 s⁻¹	34	26	0.0017 s⁻¹	0.0023 s⁻¹	–
T0263018B11 Y32L (VHH, name in Kabat numbering, FLAG3-His6 tagged) VHH: EVQLVESGGGVVQPGGSLRLSCAASGFTFSSLAMYWVRQAPGKGLEWVSAISSGGGSTDYADSVKGRFTISRDNSKNTLYLQMNSLRPEDTALYYCAADTLYTSLTWYSYWGQGTLVTVSS	0.39 s⁻¹	0.61 s⁻¹	46	49	0.0084 s⁻¹	0.013 s⁻¹	–
T026301050 (VHH, name in Kabat numbering, tagless) VHH: EVQLVESGGGVVQPGGSLRLSCAASTFTFSSYAMYWVRQAPGKGLEWVSAISQGGGSTDYADSVKGRFTISRDNSKNTLYLQMNSLRPEDTALYYCAADTLYTDLTWYSYWGQGTLVTVSS	–	–	–	–	–	–	0.029 s⁻¹
T0263018B11 Y32S (VHH, name in Kabat numbering, FLAG3-His6 tagged) VHH: EVQLVESGGGVVQPGGSLRLSCAASGFTFSSSAMYWVRQAPGKGLEWVSAISSGGGSTDYADSVKGRFTISRDNSKNTLYLQMNSLRPEDTALYYCAADTLYTSLTWYSYWGQGTLVTVSS	0.14 s⁻¹	0.19 s⁻¹	52	35	0.0028 s⁻¹	0.0054 s⁻¹	–
T0263018B11 Y98F (VHH, name in Kabat numbering, FLAG3-His6 tagged) VHH: EVQLVESGGGVVQPGGSLRLSCAASGFTFSSYAMYWVRQAPGKGLEWVSAISSGGGSTDYADSVKGRFTISRDNSKNTLYLQMNSLRPEDTALYYCAADTLFTSLTWYSYWGQGTLVTVSS	0.022 s⁻¹	0.04 s⁻¹	84	75	0.00026 s⁻¹	0.00053 s⁻¹	–
T0263018B11 W100cY (VHH, name in Kabat numbering, FLAG3-His6 tagged) VHH: EVQLVESGGGVVQPGGSLRLSCAASGFTFSSYAMYWVRQAPGKGLEWVSAISSGGGSTDYADSVKGRFTISRDNSKNTLYLQMNSLRPEDTALYYCAADTLYTSLTYYSYWGQGTLVTVSS	0.075 s⁻¹	0.09 s⁻¹	50	43	0.0015 s⁻¹	0.0021 s⁻¹	–
T0263018B11 W100cV (VHH, name in Kabat numbering, FLAG3-His6 tagged) VHH: EVQLVESGGGVVQPGGSLRLSCAASGFTFSSYAMYWVRQAPGKGLEWVSAISSGGGSTDYADSVKGRFTISRDNSKNTLYLQMNSLRPEDTALYYCAADTLYTSLTVYSYWGQGTLVTVSS	0.18 s⁻¹	0.5 s⁻¹	76	61	0.0024 s⁻¹	0.0082 s⁻¹	–
T026301052 (VHH, name in Kabat numbering, tagless) VHH: EVQLVESGGGVVQPGGSLRLSCAASTFTFSEYDMYWVRQAPGKGLEWVSAISSGGGSTDYADSVKGRFTISRDNSKNTLYLQMNSLRPEDTALYYCAADTLYTSLTWYSYWGQGTLVTVSS	–	–	–	–	–	–	0.0056 s⁻¹
T0263018B11 W100cQ (VHH, name in Kabat numbering, FLAG3-His6 tagged) VHH: EVQLVESGGGVVQPGGSLRLSCAASGFTFSSYAMYWVRQAPGKGLEWVSAISSGGGSTDYADSVKGRFTISRDNSKNTLYLQMNSLRPEDTALYYCAADTLYTSLTQYSYWGQGTLVTVSS	0.5 s⁻¹	0.5 s⁻¹	85	56	0.0059 s⁻¹	0.009 s⁻¹	–
T0263018B11 Y102T (VHH, name in Kabat numbering, FLAG3-His6 tagged) VHH: EVQLVESGGGVVQPGGSLRLSCAASGFTFSSYAMYWVRQAPGKGLEWVSAISSGGGSTDYADSVKGRFTISRDNSKNTLYLQMNSLRPEDTALYYCAADTLYTSLTWYSTWGQGTLVTVSS	0.06 s⁻¹	0.065 s⁻¹	50	38	0.0012 s⁻¹	0.0017 s⁻¹	–
T0263018B11 Y32Q (VHH, name in Kabat numbering, FLAG3-His6 tagged) VHH: EVQLVESGGGVVQPGGSLRLSCAASGFTFSSQAMYWVRQAPGKGLEWVSAISSGGGSTDYADSVKGRFTISRDNSKNTLYLQMNSLRPEDTALYYCAADTLYTSLTWYSYWGQGTLVTVSS	0.099 s⁻¹	0.14 s⁻¹	75	60	0.0013 s⁻¹	0.0023 s⁻¹	–
T0263018B11 Y35F (VHH, name in Kabat numbering, FLAG3-His6 tagged) VHH: EVQLVESGGGVVQPGGSLRLSCAASGFTFSSYAMFWVRQAPGKGLEWVSAISSGGGSTDYADSVKGRFTISRDNSKNTLYLQMNSLRPEDTALYYCAADTLYTSLTWYSYWGQGTLVTVSS	0.16 s⁻¹	0.14 s⁻¹	46	33	0.0035 s⁻¹	0.0043 s⁻¹	–
